Results from the DeepSol protein solubility set.

Experiment: soluble on expression in E. coli; label from the status in PepcDB or PDB records

Row | Sequence | soluble on expression in E. coli
1 | KFSPEFGIFMNIGASKIFTKTEVDQNEYSYLVDFRTIKGDIFLDFEAIFQLGVKNNINNNIVTGLTSLLEIGYSPYIISTKYEGESDSIYYIFTDRVILYSLVLGALEKIVFNNFSIGIGAGVLFPISGFAASNHPRNIISVMPSENLSIISPYNSKLDYAYIKKLFKVPVAPYIKITAEYAFKPYKIDNAEMDFVLGAYLSYNFGMQYDVSVLNSNIPKQGDNGLIIPGISSKDMFYKYDYSNLDFGVTFGVSFRALE | not soluble
2 | MKTINLSIFGLGNVGLNLLRIIRSFNEENRLGLKFNVVFVADSLHSYYNERIDIGKVISYKEKGSLDSLEYESISASEALARDFDIVVDATPASADGKKELAFYKETFENGKDVVTANKSGLANFWPEIMEYARSNNRRIRYEATVAGGVPLFSFIDYSVLPSRIKKFRGIVSLTINYFIRELANKREFDDVLSEATKLGIVEKNYKDDLTGLDAARKSVILCNHLYGSSYRLSDVFYEGILDQDRSFGKNERLVTETGIVNGKPSAESRIKSLDSNDYLLTLGKGSLGYQLQTDTNGTLNVSDLYDGPYETAGAVMNDLVILSMFTV | soluble
3 | MGSDKIHHHHHHVAELVFFSGTMDCGKSTLALQMDHNHRARGRGGVRFSRNDRAGGARISSRLGLETDCVEVLDTTDFWDEVIERRTRGLRVDYLICDEAQFYSPLQVEQLARIVDEIDVDVFAFGISADFRTRLFPGSQRLIELADRVQVLQVEALCWCGRRATHNARTVDGVMVTEGAQVVVGDVDMAGDPASASADHAPVVGYETLCRRHFMRRVTAHGANVMAQQDQLLPFEVDACLWHGSGETRHS | not soluble
4 | MTASHGQAAAIPTVTLNDDNTLPVVGIGVGELSDSEAERSVSAALEAGYRLIDTAAAYGNEAAVGRAIAASGIPRDEIYVTTKLATPDQGFTSSQAAARASLERLGLDYVDLYLIHWPGGDTSKYVDSWGGLMKVKEDGIARSIGVCNFGAEDLETIVSLTYFTPAVNQIELHPLLNQAALREVNAGYNIVTEAYGPLGVGRLLDHPAVTAIAEAHGRTAAQVLLRWSIQLGNVVISRSANPERIASNLDVFGFELTADEMETLNGLDDGTRFRPDPATYTGS | soluble
5 | MGGFGVGKTTMVGSVSEIRPLTTEETMTQAGIGVDDNYGSASKTATTVAMDFGRISITDELVLYLFGTPGQERFWFLWNGLFEGALGAVVLVDTRRLEVSFDVMGRLEERGVPFVVAVNTFPDAPRYPVAELRTALDLPEEIPILDCDVRRRASSRDVLMTLMRLLHSLAMKGALTLEHHHHHH | not soluble
6 | MKKTLTVTLSSIAAFIAINTAANAQESETSQLDTYATGDVITNQSNLGIYIVKPGDSLYKIALEHNLSLEELYALNPGVEPLIFPGDEIVVSETAFEQFNNTNTFVNYETNYIPVGYNNVSTDTSNTTYDNYDSESTDTYSVSNAYDGLRSVSNSGNLYTTGQCTYYAFDRRAELGKPIGSLWGNASNWAYSANQAGFNVDHTPEVGAVFQSGPGQNGAGAYGHVGVVESINSNGSVTVSEMNWNGGVNVKSYRTISNPNSYNYIHLEHHHHHH | not soluble
7 | MGSDKIHHHHHHVYRKIKAQDLRPGMYVVDVGLSWLENPYLYMTEGVLADEEAVGRVLSEGYEEAVIDLRRCLEGSVPDDLAELEPLTDAEHVSRAVSATADSPVSAVAQRVPVAQEMLAAKAIYSESITFVRGFMEGAREGRPVDLKAAEPLVEDIIQSVSRNAGALIGFAKLRAYDLYTYTHSLNVSLLAVAFGKYLGLDTVALRQIGLAGLFHDLGKALIPDFILNCPGRLTPEEFSVMKRHPVLGRDVLPGGGRIPDMVLEGMLQHHEKFNGTGYPAGLKGDAISEAGRIIAVVDVYDALTSKRPYKNAMLPNKALSILYSMAGEEFYPGYVEHFIKCIGIYPVGQIVRLNTGQVGVVSATDPAVPLRPEVIVVRDPLGRPAPPRLIRLADVISVSVTETLEAAHAGIDAARVLQDGAAS | not soluble
8 | MLSAESLKQIDIELAKYPADQRRSAIMGALRIAQTEKGWLAPETIAFVADYIGITPAQAYEVATFYNMYDLEPVGKYKLTVCTNLPCALRGGMATGEYLKQKLGIGYGETTPDGKFTLVEGECMGACGDAPVMLVNNHSMCSFMTEEAIEKKLAELE | not soluble
9 | IPGKDVAVTAGRVVFQNHLIELIQYEAQTKTVYKEPILILPAWIMKYYILDLSPHNSLVKWLVKQGHTVFIISWRNPDKEDCDLGMDDYYRLGAMAAIDMVSTILPETKINLMGYCLGGTLAMITASMMGRYEDERLNCLTLLAAQGDFSEAGELMLFVNESQVDFLKSMMWEQGYLDTKQMAGSFQMLRAYDLIWSKMVQDYMHGMRRGMIDLTAWNADATRMPYKMHSEYLEKLFLNNDFAEGRYMVEGKSVAAENIQCPIFAVSTKKDHVAPWQSVYKIHLMTEENVTFVLTGGGHN | not soluble
10 | MTSNDADIKATVCVVTYNQVEYIEQCLQSLIDQITNFEFEIIVGDDFSTDGTRRIVEDFQRKYPHVIKPIFHSRNVGAAVNFNAVHGSARGKFVAHVDGDDYMLPNKLRSQVDFMERNPNCNISWHRMYVSYGSNIKEDLLDLNNFRQLCFTRADILKFITIGMNSSKMYRAETMNFQRPDFPMLDYFANVEQIGDGQACFISSEPLGVYRAGIGIAKNDFRVKEALNSSFLYFLSKYPKLSNEINQSVLLLLLMAFKNRRYTELSLFLKVYLKSFSFFTPWKLYKDYEFIKMLRLPKLEHHHHHH | not soluble
11 | SLIENVDAQADSSWPHRGQIEVRNLTVKYTEAGHAVLKNLSFSAEGRQRVGILGRTGSGKSSLFNALLKLVYTDGEISIDGVNWNKMPLEKWRKAFGVVPQKVFIFTGPLRMNLDPYGCHSDEELWRVAEEVGLKTVIEQFPDKLDFQLEYGGYVLSNGHKQLICLARSILSGARILLLDEPSAHLDPVTIKVLKKTLRQSFSTCTILLSEHKVEPLLECDSFLMMDKGQVKTYDSIQKLLNETSDLKQAISPAE | not soluble
12 | CPQEDSDIAFLIDGSGSIIPHDFRRMKEFVSTVMEQLKKSKTLFSLMQYSEEFRIHFTFKEFQNNPNPRSLVKPITQLLGRTHTATGIRKVVRELFNITNGARKNAFKILVVITDGEKFGDPLGYEDVIPEADREGVIRYVIGVGDAFRSEKSRQELNTIASKPPRDHVFQVNNFEALKTIQNQLREKIFAIGSPGI | soluble
13 | MSLDSSMKISKVDNIGNHEDIEVNNAEIALSLASQMVGSGEEVVSMSIKYSKERVAFGKPIGSYQAIKHRVVNDAIDVELARSLILEAAENIKYAWIAKDLANKKIPKAILSGIQVHGGIGFTDDLDIHLHLRRALTLSKLYNSKVNISEFLQPIEGHHHHHH | not soluble
14 | VPTPKRPRGRPKGSKNKGAAKTRKT | soluble
15 | MKLMFASDIHGSLPATERVLERFAQSGARWLVILGDVLNHGPRNALPEGYAPAQVAERLNAVATQIIAVRGNCDSEVDQMLLHFPITAPWQQILTQERRLFLTHGHLFGPTNLPALHTGDVLVYGHTHLPVAQQQEGLYHFNPGSVSIPKGGYAASYGILDDNVLSVIALNDQSIIAQVAINS | not soluble
16 | RFTPRWIVRFLVENSLGRLWAEMHPDSRLKDSLSYLVPIENSQAHPLKLVRDITFLDPSCGSMHFGLVAFDLFAEMYREEFEKAGQPGWPENPSVNAEDEIASSIIAHNLHGIDIDLRSVQISALTLLLRARTLSPKCAFTDRNLACANVEQTSGGKLETLIAAAKFSHPIYERVLRTLAAEMKDSDQLGSLLRLERSLERLVIEERRKAEENKQFLLSFPGISPEQFDTQAGIEEFFDLLSDQLLRHLDFFVRASREMGGDPGHIVNEAAKGLRYMQLVSHHYDVVATNPPYMSRRNMSDVIAKHLDKHYPETKGDLYAAFIARCLELVAPQGKVAMVTQQSFMFIGTYEKFRSNLLSRVTVETMAHLGPKAFPNITGEKVNTTAFVIRREPDG | not soluble
17 | SHSEAEESKEVAADVFNSKNLAVQAQKKILGKMVSKSIATTLIDDTSSEVLDELYRVTREYTQNKKEAEKIIKNLIKTVIKLAILYRNNQFNQDELALMEKFKKKVHQLAMTVVSFHQVDYTFDRNVLSRLLNECREMLHQIIQRHLTAKSHGRVNNVFDHFSDCEFLAALYNPFGNFKPHLQKLCDGINKMLDEENI | soluble
18 | PVHAVGIGPGNLDFLTPRGEEAIREADVVVGFETVVEFVADRTDADLLTCGYRDELDTLDAFAERVAGGERGTAVAMGDPNHSGYQFVGKVQRAVDRPVRIVPGI | not soluble
19 | MDREQVVALQHQRFAAKKYDPNRRISQKDWEALVEVGRLAPSSIGLEPWKMLLLKNERMKEDLKPMAWGALFGLEGASHFVIYLARKGVTYDSDYVKKVMHEVKKRDYDTNSRFAQIIKNFQENDMKLNSERSLFDWASKQTYIQMANMMMAAAMLGIDSCPIEGYDQEKVEAYLEEKGYLNTAEFGVSVMACFGYRNQEITPKTRWKTEVIYEVIE | soluble
20 | MAKGTIKTNTPPPAPVVGPPGKSAKYRVKHTITVMSGKGGVGKSTVAVNLAVSLAKKGLKVGLIDADINGPDDPKLLGVEDLKLYADDDGIIPAETKYGVKVVSMGFLLPSQDTPVIWRGSLMHKAIQQFLEDVSWKDTDYVVLDMPPGTGDVALSVAQLVPESNGVVIVVTPQDVALLDAKKAINFARQLKLPIFGIIENMSGFVCPHCGNVTYIFKEGGGEKSAKEYNVPFLGKIPLVPEIADNGDKGIPAVEINDTIKSIFNDIADKILKQILGENVKTEALEHHHHHH | not soluble
21 | MGSDKIHHHHHHMLHYNALTRGCGRITLLMLGLALCQPVFAHPHSFIDMQTTVESQNDNITGLRMQWTMDPITSADLLYDAGKAKKDSEVWKKLAAEVMANVLGQHYFTDIYRDSQPVKYAPMPTEYHLSRKGNQAILEFVLPLAHPQPLAGKPLLISTYDPTYFVDMSYQNDKAVKLAPALASRCKTSLVTPKPNTELQSYALSLDKNDAPDEDMDLGKQFAQRVTLQCQ | not soluble
22 | MSTRKAVIGYYFIPTNQINNYTETDTSVVPFPVSNITPAKAKQLTHINFSFLDINSNLECAWDPATNDAKARDVVNRLTALKAHNPSLRIMFSIGGWYYSNDLGVSHANYVNAVKTPASRAKFAQSCVRIMKDYGFDGVDINWEYPQAAEVDGFIAALQEIRTLLNQQTITDGRQALPYQLTIAGAGGAFFLSRYYSKLAQIVAPLDYINLMTYDLAGPWEKVTNHQAALFGDAAGPTFYNALREANLGWSWEELTRAFPSPFSLTVDAAVQQHLMMEGVPSAKIVMGVPFYGRAFKGVSGGNGGQYSSHSTPGEDPYPSTDYWLVGCEECVRDKDPRIASYRQLEQMLQGNYGYQRLWNDKTKTPYLYHAQNGLFVTYDDAESFKYKAKYIKQQQLGGVMFWHLGQDNRNGDLLAALDRYFNAADYDDSQLDMGTGLRYTGVGPGNLPIMTAPAYVPGTTYAQGALVSYQGYVWQTKWGYITSAPGSDSAWLKVGRVA | soluble
23 | PMVTAATSLRRALENPDSFIVAPGVYDGLSARVALSAGFDALYMTGAGTAASVHGQADLGICTLNDMRANAEMISNISPSTPVIADADTGYGGPIMVARTTEQYSRSGVAAFHIEDQVQTKRCGHLAGKILVDTDTYVTRIRAAVQARQRIGSDIVVIARTDSLQTHGYEESVARLRAARDAGADVGFLEGITSREMARQVIQDLAGWPLLLNMVEHGATPSISAAEAKEMGFRIIIFPFAALGPAVAAMREAMEKLKRDGIPGLDKEMTPQMLFRVCGLDESMKVDAQAGGAAFDGGVDLK | soluble
